Data as given in US20100061983A1 (published 2010).

T1: human CXC Chemokine Receptor 3 (CXCR3) (human, UniProt P49682 1-368)
T1 construct: also called IP-10/Mig receptor; IP-10/MigR
T1 sequence: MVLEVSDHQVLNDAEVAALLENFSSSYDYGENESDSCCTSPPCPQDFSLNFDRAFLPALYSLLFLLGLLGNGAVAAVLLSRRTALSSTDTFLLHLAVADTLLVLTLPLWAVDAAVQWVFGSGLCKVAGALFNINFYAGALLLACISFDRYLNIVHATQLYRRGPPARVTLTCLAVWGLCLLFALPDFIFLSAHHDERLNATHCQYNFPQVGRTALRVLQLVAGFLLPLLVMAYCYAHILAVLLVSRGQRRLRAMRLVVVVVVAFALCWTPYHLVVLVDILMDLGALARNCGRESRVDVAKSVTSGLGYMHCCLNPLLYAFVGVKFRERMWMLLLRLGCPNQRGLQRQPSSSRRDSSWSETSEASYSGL


Legend:
[1] = biological target: T1, human CXC Chemokine Receptor 3 (CXCR3); experiment: cell-based or functional assay
[2] = biological target: T1, human CXC Chemokine Receptor 3 (CXCR3); experiment: inhibition of 125I-IP-10 binding to activated T cells
[3] = biological target: T1, human CXC Chemokine Receptor 3 (CXCR3); experiment: inhibition of 0.05 nM 125I-IP-10 binding to activated T cells (CD3 blasts)
[4] = biological target: T1, human CXC Chemokine Receptor 3 (CXCR3); experiment: summing-up of the radioligand binding studies; Mig itself was tested only as cold competitor of 125I-IP-10

Sequence of MIP-1α (macrophage inflammatory protein-1α) (P10147 24-92 limits assumed): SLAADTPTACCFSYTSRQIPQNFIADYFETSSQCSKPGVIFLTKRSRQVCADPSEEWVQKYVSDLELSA
Sequence of MIP-1β (P13236 24-92 limits assumed): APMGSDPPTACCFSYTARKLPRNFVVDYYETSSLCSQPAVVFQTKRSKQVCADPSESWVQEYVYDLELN
Sequence of RANTES (regulated on activation, normal T cell expressed and secreted) (P13501 24-91): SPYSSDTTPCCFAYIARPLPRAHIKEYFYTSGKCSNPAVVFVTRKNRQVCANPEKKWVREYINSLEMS
Sequence of ENA78 (epithelial-derived neutrophil-activating peptide 78) (P42830 37-114 limits assumed): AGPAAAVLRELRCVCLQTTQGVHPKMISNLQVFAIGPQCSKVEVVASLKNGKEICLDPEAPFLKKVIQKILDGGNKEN
Sequence of GROα (P09341 35-107 limits assumed): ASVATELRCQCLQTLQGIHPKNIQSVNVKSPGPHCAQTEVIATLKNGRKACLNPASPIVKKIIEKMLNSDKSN
Sequence of GCP-2 (granulocyte chemotactic protein-2) (P80162 38-114 limits assumed): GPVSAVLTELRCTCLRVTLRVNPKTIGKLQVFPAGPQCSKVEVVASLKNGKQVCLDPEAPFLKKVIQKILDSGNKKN
Sequence of IL-8 (interleukin 8) (P10145 28-99 limits assumed): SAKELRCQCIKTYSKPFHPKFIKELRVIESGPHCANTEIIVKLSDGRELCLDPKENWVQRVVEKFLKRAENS
Sequence of MCP-2 (P80075 24-99 limits assumed): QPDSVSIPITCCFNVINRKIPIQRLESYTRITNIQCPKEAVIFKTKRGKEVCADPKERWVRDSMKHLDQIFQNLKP

| Molecule | [Ca2+]i changes in IP-10/MigR transfectants (no response up to the concentration given) [1] [nM] | also measured |
| --- | --- | --- |
| ENA78 (epithelial-derived neutrophil-activating peptide 78) (from UniProt P42830 37-114) (ligand) | > 100 | – |
| GCP-2 (granulocyte chemotactic protein-2) (from UniProt P80162 38-114) (ligand) | > 100 | – |
| GROα (from UniProt P09341 35-107) (ligand) | > 100 | – |
| IL-8 (interleukin 8) (from UniProt P10145 28-99) (ligand) | > 100 | – |
| MCP-1 (monocyte chemotactic protein-1) (from UniProt P13500 24-99) (ligand) | > 100 | – |
| MCP-2 (from UniProt P80075 24-99) (ligand) | > 100 | – |
| MCP-3 (from UniProt P80098 24-99) (ligand) | > 100 | – |
| MCP-4 (from UniProt Q99616 24-98) (ligand) | > 100 | – |
| MIP-1α (macrophage inflammatory protein-1α) (from UniProt P10147 24-92) (ligand) | > 100 | – |
| MIP-1β (from UniProt P13236 24-92) (ligand) | > 100 | – |
| RANTES (regulated on activation, normal T cell expressed and secreted) (from UniProt P13501 24-91) (ligand) | > 100 | – |
| eotaxin (from UniProt P51671 24-97) (ligand) | > 100 | – |
| lymphotactin (from UniProt P47992 22-114) (ligand) | > 100 | – |
| murine anti-CXCR3 monoclonal antibody 1C6 | – | IC50, inhibition of IP-10 (12.5 nM) induced chemotaxis of activated T cells [1]: 0.8 µg/mL; IC50, inhibition of IP-10 mediated chemotaxis of activated T cells [1]: 0.856 µg/mL; Mig (2 nM) induced [Ca2+]i in activated T cells (no effect up to the concentration given) [1]: > 50 µg/mL; antibody concentration giving 100% inhibition of IP-10 induced chemotaxis of activated T cells [1]: 2 to 5 µg/mL; antibody concentration giving complete inhibition of 125I-IP-10 binding [2]: 1 to 10 µg/mL; IC50 [3]: 0.16 µg/mL |
| NAP-2 (neutrophil-activating protein-2) (ligand, human, UniProt P02775 59-128, looked up) AELRCMCIKTTSGIHPKNIQSLEVIGKGTHCNQVEVIATLKDGRKICLDPDAPRIKKIVQKKLAGDESAD | > 100 | – |
| PF4 (platelet factor 4) (ligand, human, UniProt P02776 32-101, looked up) EAEEDGDLQCLCVKTTSQVRPRHITSLEVIKAGPHCPTAQLIATLKNGRKICLDLQAPLYKKIIKKLLES | > 100 | – |
| Mig (monokine induced by gamma interferon) (ligand, human, UniProt Q07325 23-125, looked up, also called cold Mig) TPVVRKGRCSCISTNQGTIHLQSLKDLKQFAPSPSCEKIEIIATLKNGVQTCLNPDSADVKELIKKWEKQVSQKKKQKNGKKHQKKKVLKVRKSQRSRQKKTT | – | Kd [4]: 0.15 to 0.6 nM |
| I309 (ligand, human, UniProt P22362 24-96, looked up) KSMQVPFSRCCFSFAEQEIPLRAILCYRNTSSICSNEGLIFKLKRGKEACALDTVGWVQRHRKMLRHCPSKRK | > 100 | – |
